Columns and labels:
[1] = molecular target: FLAME-1-D341A (in vitro translated, 35S-labeled)
[2] = molecular target: FLAME-1 (in vitro translated, 35S-labeled)

| Protein | cleavage of 35S-labeled FLAME-1-D341A (SDS-PAGE, autoradiography) [1] | cleavage of 35S-labeled FLAME-1 into p39 and p12 (SDS-PAGE, autoradiography) [2] |
| --- | --- | --- |
| caspase-8 (Mch5), purified recombinant (protein) SESQTLDKVYQMKSKPRGYCLIINNHNFAKAREKVPKLHSIRDRNGTHLDAGALTTTFEELHFEIKPHDDCTVEQIYEILKIYQLMDHSNMDCFICCILSHGDKGIIYGTDGQEAPIYELTSQFTGLKCPSLAGKPKVFFIQACQGDNYQKGIPVETDSEEQPYLEMDLSSPQTRYIPDEADFLLGMATVNNCVSYRNPAEGTWYIQSLCQSLRERCPRGDDILTILTEVNYEVSNKDDKKNMGKQMPQPTFTLRKKLVFPSD | a D to A mutation in this site prevents these caspases from cleaving FLAME-1 | in vitro translated FLAME-1 can be cleaved by several caspases including CPP32, Mch2, Mch3, Mch4, MchS and ICH-1 to generate two fragments (p39 and pl2) |
| caspase-3 (CPP32), purified recombinant (protein) SGISLDNSYKMDYPEMGLCIIINNKNFHKSTGMTSRSGTDVDAANLRETFRNLKYEVRNKNDLTREEIVELMRDVSKEDHSKRSSFVCVLLSHGEEGIIFGTNGPVDLKKITNFFRGDRCRSLTGKPKLFIIQACRGTELDCGIETDSGVDDDMACHKIPVEADFLYAYSTAPGYYSWRNSKDGSWFIQSLCAMLKQYADKLEFMHILTRVNRKVATEFESFSFDATFHAKKQIPCIVSMLTKELYFYH | – | in vitro translated FLAME-1 can be cleaved by several caspases including CPP32, Mch2, Mch3, Mch4, MchS and ICH-1 to generate two fragments (p39 and pl2) |
| caspase-10 (Mch4), purified recombinant (protein) VKTFLEALPRAAVYRMNRNHRGLCVIVNNHSFTSLKDRQGTHKDAEILSHVFQWLGFTVHIHNNVTKVEMEMVLQKQKCNPAHADGDCFVFCILTHGRFGAVYSSDEALIPIREIMSHFTALQCPRLAEKPKLFFIQACQGEEIQPSVSIEADALNPEQAPTSLQDSIPAEADFLLGLATVPGYVSFRHVEEGSWYIQSLCNHLKKLVPRHEDILSILTAVNDDVSRRVDKQGTKKQMPQPAFTLRKKLVFPVPLDALSL | a D to A mutation in this site prevents these caspases from cleaving FLAME-1 | in vitro translated FLAME-1 can be cleaved by several caspases including CPP32, Mch2, Mch3, Mch4, MchS and ICH-1 to generate two fragments (p39 and pl2) |
| caspase-2 (ICH-1), purified recombinant (protein) GPVCLQVKPCTPEFYQTHFQLAYRLQSRPRGLALVLSNVHFTGEKELEFRSGGDVDHSTLVTLFKLLGYDVHVLCDQTAQEMQEKLQNFAQLPAHRVTDSCIVALLSHGVEGAIYGVDGKLLQLQEVFQLFDNANCPSLQNKPKMFFIQACRGDETDRGVDQQDGKNHAGSPGCEESDAGKEKLPKMRLPTRSDMICGYACLKGTAAMRNTKRGSWYIEALAQVFSERACDMHVADMLVKVNALIKDREGYAPGTEFHRCKEMSEYCSTLCRHLYLFPGHPPT | a D to A mutation in this site prevents these caspases from cleaving FLAME-1 | in vitro translated FLAME-1 can be cleaved by several caspases including CPP32, Mch2, Mch3, Mch4, MchS and ICH-1 to generate two fragments (p39 and pl2) |
| caspase-7 (Mch3), purified recombinant (protein) AKPDRSSFVPSLFSKKKKNVTMRSIKTTRDRVPTYQYNMNFEKLGKCIIINNKNFDKVTGMGVRNGTDKDAEALFKCFRSLGFDVIVYNDCSCAKMQDLLKKASEEDHTNAACFACILLSHGEENVIYGKDGVTPIKDLTAHFRGDRCKTLLEKPKLFFIQACRGTELDDGIQADSGPINDTDANPRYKIPVEADFLFAYSTVPGYYSWRSPGRGSWFVQALCSILEEHGKDLEIMQILTRVNDRVARHFESQSDDPHFHEKKQIPCVVSMLTKELYFSQ | – | in vitro translated FLAME-1 can be cleaved by several caspases including CPP32, Mch2, Mch3, Mch4, MchS and ICH-1 to generate two fragments (p39 and pl2) |
| caspase-6 (Mch2), purified recombinant (protein) AFYKREMFDPAEKYKMDHRRRGIALIFNHERFFWHLTLPERRGTCADRDNLTRRFSDLGFEVKCFNDLKAEELLLKIHEVSTVSHADADCFVCVFLSHGEGNHIYAYDAKIEIQTLTGLFKGDKCHSLVGKPKIFIIQACRGNQHDVPVIPLDVVDNQTEKLDTNITEVDAASVYTLPAGADFLMCYSVAEGYYSHRETVNGSWYIQDLCEMLGKYGSSLEFTELLTLVNRKVSQRRVDFCKDPSAIGKKQVPCFASMLTKKLHFFPKSN | a D to A mutation in this site prevents these caspases from cleaving FLAME-1 | in vitro translated FLAME-1 can be cleaved by several caspases including CPP32, Mch2, Mch3, Mch4, MchS and ICH-1 to generate two fragments (p39 and pl2) |
